# B1: Apo-2L/TRAIL: recombinant human trimeric form of Apo-2L/TRAIL from Genentech, Inc., produced in E. coli (protein, UniProt P50591 1-281, looked up)
# Tumor necrosis factor ligand …: MAMMEVQGGPSLGQTCVLIVIFTVLLQSLCVAVTYVYFTNELKQMQDKYSKSGIACFLKEDDSYWDPNDEESMNSPCWQVKWQLRQLVRKMILRTSEETISTVQEKQQNISPLVRERGPQRVAAHITGTRGRSNTLSSPNSKNEKALGRKINSWESSRSGHSFLSNLHLRNGELVIHEKGFYYIYSQTYFRFQEEIKENTKNDKQMVQYIYKYTSYPDPILLMKSARNSCWSKDAEYGLYSIYQGGIFELKENDRIFVSVTNEHLIDMDHEASFFGAFLVG
# modifications: trimeric
# notes: recombinant human trimeric form of Apo-2L/TRAIL from Genentech, Inc., produced in E. coli
# Tested on: Primary AML cells
# Experiment: Apoptosis of primary AML cells by annexin V staining and flow cytometry
# Type: cell-based, human
# Conditions: for % of Apoptosis: LAQ824 100 nM and/or Apo-2L/TRAIL 100 ng/mL, 24 hours
# Source text: Jurkat T cell leukemia and SKW6.4 B lymphoblast cells are obtained from American Tissue Culture Collection (Manassas, Va.). HL-60/Bcl-2 cells with ectopic over-expression of Bcl-2 and the control HL-60/Neo cells are created and maintained in culture as previously described. Primary leukemia blasts from six patients with AML in relapse are harvested, as previously described, from the peripheral blood or bone marrow after informed consent, as a part of a protocol study sanctioned by the local Institutional Review Board. The purity of leukemia blasts in the samples prior to culture in LAQ824 and/or Apo-2L/TRAIL was at least 80% or more, as determined by morphologic evaluation after Wright staining.
# After drug treatments, cells are resuspended in 100 μL of the staining solution containing annexin-V fluorescein and propidium iodide in a HEPES buffer (Annexin-V-FLUOS Staining Kit, Boehringer-Mannheim, and Indianapolis, Ind.). Following incubation at room temperature for 15 minutes, annexin V positive cells are estimated by flow cytometry, as previously described.
molecule,measurement,setting,value
B1,% of Apoptosis,"Patient 1 primary AML cells, control 7.0",7.6%
same,% of Apoptosis,"Patient 2 primary AML cells, control 12.0",14.0%
same,% of Apoptosis,"Patient 3 primary AML cells, control 8.0",8.6%
same,% of Apoptosis,"Patient 4 primary AML cells, control 10.0",11.0%
same,% of Apoptosis,"Patient 5 primary AML cells, control 6.0",6.8%
same,% of Apoptosis,"Patient 6 primary AML cells, control 7.0",8.1%
same,apoptosis of primary AML blasts (in words),"six samples, relapsed AML, Apo-2L/TRAIL 100 ng/mL, LAQ824 100 nM",resistant

# Reference: patent publication US20070258972A1, “Combination of a Histone Deacetylase Inhibitor with a Death Receptor Ligand” (priority 2003, published 2007)
